The source of these data is ChEMBL document CHEMBL4382202, “1-(2-Hydroxybenzoyl)-thiosemicarbazides are promising antimicrobial agents targeting d-alanine-d-alanine ligase in bacterio” (Eur J Med Chem, 2018).

Compound in data set [1]: O=C(NNC(=S)Nc1ccc(Cl)c(Cl)c1)c1ccccc1O
As to the kind of experiment: Inhibition of Enterococcus faecalis JH2-2 C-terminal 6His-tagged DdlB expressed in Escherichia coli LMG194 assessed as Km2 of D-Ala using 500 uM ATP by Biomol Green reagent assay.

Compound in data set [2]: O=C(NNC(=S)Nc1ccc(Cl)c(Cl)c1)c1ccccc1O
As to the kind of experiment: Inhibition of Enterococcus faecalis JH2-2 C-terminal 6His-tagged DdlB expressed in Escherichia coli LMG194 assessed as Km of D-Ala at 10 uM by Biomol Green reagent assay (reference value: 5.62 mM).

Compound in data set [3]: O=C(NNC(=S)Nc1ccc(Cl)c(Cl)c1)c1ccccc1O
As to the kind of experiment: Inhibition of Enterococcus faecalis JH2-2 C-terminal 6His-tagged DdlB expressed in Escherichia coli LMG194 assessed as Km of D-Ala at 1 uM by Biomol Green reagent assay (reference value: 5.62 mM).

Compound in data set [4]: O=C(NNC(=S)Nc1ccc(Cl)c(Cl)c1)c1ccccc1O
As to the kind of experiment: Inhibition of Enterococcus faecalis JH2-2 C-terminal 6His-tagged DdlB expressed in Escherichia coli LMG194 assessed as Km of ATP using 50 mM D-Ala substrate by Biomol Green reagent assay.

Compound in data set [5]: O=C(NNC(=S)Nc1ccc(Cl)c(Cl)c1)c1ccccc1O
In words: Inhibition of Enterococcus faecalis JH2-2 C-terminal 6His-tagged DdlB expressed in Escherichia coli LMG194 assessed as Vmax of ATP at 10 uM by Biomol Green reagent assay (reference value: 89.05 +/- 5.41 microM/min).

Compound in data set [6]: O=C(NNC(=S)Nc1ccc(Cl)c(Cl)c1)c1ccccc1O
In words: Inhibition of Enterococcus faecalis JH2-2 C-terminal 6His-tagged DdlB expressed in Escherichia coli LMG194 assessed as Km1 of D-Ala using 500 uM ATP by Biomol Green reagent assay.

Compound in data set [7]: O=C(NNC(=S)Nc1ccc(Cl)c(Cl)c1)c1ccccc1O
In words: Inhibition of Enterococcus faecalis JH2-2 C-terminal 6His-tagged DdlB expressed in Escherichia coli LMG194 assessed as Vmax of D-Ala at 10 uM by Biomol Green reagent assay (reference value: 61.95 +/- 1.11 microM/min).

Compound in data set [8]: O=C(NNC(=S)Nc1ccc(Cl)c(Cl)c1)c1ccccc1O
In words: Inhibition of Enterococcus faecalis JH2-2 C-terminal 6His-tagged DdlB expressed in Escherichia coli LMG194 assessed as Vmax of D-Ala at 1 uM by Biomol Green reagent assay (reference value: 61.95 +/- 1.11 microM/min).

Compound in data set [9]: O=C(NNC(=S)Nc1ccc(Cl)c(Cl)c1)c1ccccc1O
In words: Inhibition of Enterococcus faecalis JH2-2 C-terminal 6His-tagged DdlB expressed in Escherichia coli LMG194 assessed as Vmax of ATP at 1 uM by Biomol Green reagent assay (reference value: 89.05 +/- 5.41 microM/min).

B1: D-alanine--D-alanine ligase (Enterococcus faecalis (strain ATCC 700802 / V583)), Q47758 (protein)
chain: MKIILLYGGRSEEHDVSVLSAYSVLNAIYYKYYQVQLVFISKDGQWVKGPLLSERPQNKEVLHLTWAQTPEETGEFSGKRISPSEIYEEEAIVFPVLHGPNGEDGTIQGFMETINMPYVGAGVLASANAMDKIMTKYLLQTVGIPQVPFVPVLRSDWKGNPKEVFEKCEGSLIYPVFVKPANMGSSVGISKVENREELQEALEEAFRYDARAIVEQGIEAREIEVAILGNEDVRTTLPGEVVKDVAFYDYDAKYINNTIEMQIPAHVPEEVAHQAQEYAKKAYIMLDGSGLSRCDFFLTSKNELFLNELNTMPGFTDFSMYPLLWENMGLKYSDLIEELIQLALNRFK
For B1, the Michaelis constant (Km) in data set [1] was 10.5 mM; in data set [2], 9.63 mM; in data set [3], 7.01 mM; in data set [4], 0.691 mM; in data set [6] it was 0.487 mM. Moreover, the Vmax was found to be 23.5 µM/min in data set [5], 45.1 µM/min in data set [7], 48.6 µM/min in data set [8] and 72.1 µM/min in [9].

Broadly, the Km is the concentration of substrate that gives half-maximal velocity. Usually Vmax stands for the top rate of the reaction or transport when substrate is in excess.
